From PMC3650007, “Human Rotavirus VP6-Specific Antibodies Mediate Intracellular Neutralization by Binding to a Quaternary Structure in the Transcriptional Pore” (PLoS ONE, 2013)

Molecular target: T1, VP6 fragment (VP6f), residues 147-339 (Rotavirus A, strain of the VP6 DNA …)
T1 construct: also called VP6 head domain construct
T1 chain: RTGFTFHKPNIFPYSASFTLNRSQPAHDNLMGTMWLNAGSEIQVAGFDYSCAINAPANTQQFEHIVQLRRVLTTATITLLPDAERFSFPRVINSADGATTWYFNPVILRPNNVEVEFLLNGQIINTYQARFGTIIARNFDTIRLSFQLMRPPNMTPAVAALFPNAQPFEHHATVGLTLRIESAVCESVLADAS
Assay: HDX-MS
Details: both partners purified

B1: RV6-26 Fab (Fab, V domains shown)
VH: EFQLVESGAEVKKPGASVKVSCKASGYSFTSYYVHWVREAPGEGLEWMGMINPSDGSTYYAQRFQPRVTMTRDTSTTTVFMEMSGLRSEDTAVYYCARGVVGATNEIDFWGQGTTVTVSS
VL: DIRLTQSPSSLSASVGDRVTITCRASQSISNYLNWYQKKPGQAPKLLIYAATSLQSGVPSRFSGSGSGTDFTLTISSVQPEDFATYYCQKTLRTWTFGQGTKVEIK
B1: binds.
